According to publication PMC8122577, “Estrogen-Related Receptor Influences the Hemolymph Glucose Content by Regulating Midgut Trehalase Gene Expression in the Last Instar Larvae of Bombyx mori”:

B1: ERRE-like CRE 1 (dsDNA)
DNA 1: GGGTTCTGACCTCGGAGGG
DNA 2: CCCTCCGAGGTCAGAACCC
B2: ERRE-like CRE 6 (dsDNA)
DNA 1: GCCTACAAGGGCAATAAAA
DNA 2: TTTTATTGCCCTTGTAGGC
B3: ERRE-like CRE 2 (dsDNA)
DNA 1: CATTGGTGACCTACATGGC
DNA 2: GCCATGTAGGTCACCAATG
B4: ERRE-like CRE 4 (dsDNA)
DNA 1: CGATACAAGGTCAACGAGA
DNA 2: TCTCGTTGACCTTGTATCG

How the values were obtained:
BmERR DBD [1] = biological target: T1, BmERR DBD (Bombyx mori, UniProt A0A1B1M0R7 103-178); test: EMSA; inhibited by competitive probe; EMSA (Beyotime chemiluminescent kit), 25 °C 20 min; 5% native PAGE in 45 mM Tris-borate, 1 mM EDTA pH 8.3; binding buffer not given; details: protein: recombinant; label: 3'-end biotin; blunt
T1 sequence: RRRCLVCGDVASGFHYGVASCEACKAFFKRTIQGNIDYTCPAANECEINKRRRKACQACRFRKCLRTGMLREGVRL

BmERR DBD [2] = biological target: T1, BmERR DBD; test: EMSA; dose-dependent; reduced by anti-BmERR antibody or competitive probe; EMSA (Beyotime chemiluminescent kit), 25 °C 20 min; 5% native PAGE in 45 mM Tris-borate, 1 mM EDTA pH 8.3; binding buffer not given; details: protein: recombinant; label: 3'-end biotin; blunt

| Binder | binding result (BmERR DBD [1]) | binding result (BmERR DBD [2]) |
| --- | --- | --- |
| B1 | binds |  |
| B2 | binds |  |
| B3 | binds |  |
| B4 |  | binds |
